# Assay results as given in US20020111476A1 (published 2002).
# Biological target: the molecule itself
# Assay: preliminary analysis of molecular form; method not detailed
protein,measurement,value
"Mouse cysteine rich soluble protein 2 (C2) (ligand, the copy number is not fixed; also called mC2; mouse C2) DETIEIIVENKVKELLANPANYPSTVTKTLSCTSVKTMNRWASCPAGMTATGCACGFACGSWEIQSGDTCNCLCLLVDWTTARCCQLS",binding result,binds
